Values belong to the molecule of their own block, whether it stands above or below them. Where a SMILES comes first, the peptide text is derived from it. Bridges are numbered along the chain shown (N, C = ends). Where no end group is shown, it is not given here.
Columns and labels:
[1] = target: T1, IDE (Homo sapiens, UniProt P14735); test: IDE protease activity assay, insulin degradation quantified by ELISA; type: biochemical; conditions: substrate recombinant human insulin; Ki converted from IC50 with the Cheng-Prusoff equation; read-out: Ki Insulin
T1 construct: made in house; host or cells: bacteria
T1 sequence (P14735 1-1019): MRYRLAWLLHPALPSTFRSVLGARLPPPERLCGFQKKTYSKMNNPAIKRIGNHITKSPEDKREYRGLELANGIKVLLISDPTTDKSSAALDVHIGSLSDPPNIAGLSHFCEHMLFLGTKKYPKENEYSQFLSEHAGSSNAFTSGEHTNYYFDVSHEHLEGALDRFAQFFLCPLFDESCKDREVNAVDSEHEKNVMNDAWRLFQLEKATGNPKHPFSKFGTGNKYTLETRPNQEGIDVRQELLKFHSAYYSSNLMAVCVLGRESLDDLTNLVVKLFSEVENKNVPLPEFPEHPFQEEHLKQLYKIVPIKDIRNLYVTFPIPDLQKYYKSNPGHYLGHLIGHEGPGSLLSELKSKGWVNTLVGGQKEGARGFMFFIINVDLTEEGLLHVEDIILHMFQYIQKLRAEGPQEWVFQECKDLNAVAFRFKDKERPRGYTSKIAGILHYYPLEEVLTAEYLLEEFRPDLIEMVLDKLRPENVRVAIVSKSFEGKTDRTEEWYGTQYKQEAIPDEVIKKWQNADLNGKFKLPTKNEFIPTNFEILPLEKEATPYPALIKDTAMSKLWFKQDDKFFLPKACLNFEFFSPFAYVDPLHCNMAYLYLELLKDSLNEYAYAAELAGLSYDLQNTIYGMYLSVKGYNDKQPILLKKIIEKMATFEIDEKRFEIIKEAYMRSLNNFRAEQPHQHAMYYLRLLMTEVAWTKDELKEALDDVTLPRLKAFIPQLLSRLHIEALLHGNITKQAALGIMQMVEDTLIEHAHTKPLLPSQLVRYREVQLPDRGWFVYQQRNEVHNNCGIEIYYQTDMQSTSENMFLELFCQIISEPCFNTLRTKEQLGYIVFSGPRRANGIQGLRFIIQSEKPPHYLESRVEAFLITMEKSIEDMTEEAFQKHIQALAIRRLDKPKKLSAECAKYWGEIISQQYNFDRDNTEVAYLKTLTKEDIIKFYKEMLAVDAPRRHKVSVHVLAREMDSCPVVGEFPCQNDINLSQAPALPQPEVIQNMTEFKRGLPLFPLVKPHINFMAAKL
Description: To assess the extent to which these peptide sequences inhibit IDE, we quantified their potency in protease activity assays using recombinant human IDE and two different substrates: FRET1, a fluorogenic peptide (45), and recombinant human insulin.
Degradation Assays—IDE activity was quantified by monitoring the degradation of (7-methoxycoumarin-4-yl)acetic acid-[…](2,4-dinitrophenyl) (FRET1, 5 μM) (49,55), fluoresceinated and biotinylated amyloid β-protein (FAβB; 500 nM) or recombinant human insulin (50 nM) in PBS supplemented with 0.05% BSA. FRET1 degradation was measured by changes in fluorescence (λex=340 nm, λem=420 nm); FAβB degradation was monitored by fluorescence polarization (λex=488 nm, λem=525 nm), as described (56); and insulin degradation was quantified by ELISA. In vitro activity assays incorporated recombinant human IDE (1 nM) purified from bacteria (35). For quantitation of insulin degradation in primary murine skin fibroblasts, cells (1×10^5/well) were plated in 96-well plates and maintained in DMEM supplemented with 10% fetal bovine serum (FBS), 2 mM glutamine, penicillin and streptomycin. After addition of insulin (10 nM or 100 nM), samples of conditioned medium were removed daily and quickly frozen, then insulin levels were quantified in parallel by ELISA according to manufacturer's recommendations (Crystal Chem, Downers Grove, Ill., USA). Assessment of the activity of P12-3A against a variety of matrix-metalloproteases was conducted using the Matrix Metalloproteinase (MMP) Inhibitor Profiling Kit, Fluorometric RED (Enzo Life Sciences, Inc., Farmingdale, N.Y., USA) according to manufacturer's recommendations using the broad-spectrum MMP inhibitor, NNGH, as a positive control.

[2] = target: T1, IDE; test: IDE protease activity assay with FRET1 substrate; type: biochemical; conditions: Ki converted from IC50 with the Cheng-Prusoff equation
[3] = target: T2, recombinant human insulin-degrading enzyme (IDE) (human, UniProt P14735 42-1019, limits assumed); test: IDE activity assay, FRET1 substrate
T2 construct: Used at 1 nM in the in vitro activity assays; immobilised on plates for phage panning
T2 sequence (looked up): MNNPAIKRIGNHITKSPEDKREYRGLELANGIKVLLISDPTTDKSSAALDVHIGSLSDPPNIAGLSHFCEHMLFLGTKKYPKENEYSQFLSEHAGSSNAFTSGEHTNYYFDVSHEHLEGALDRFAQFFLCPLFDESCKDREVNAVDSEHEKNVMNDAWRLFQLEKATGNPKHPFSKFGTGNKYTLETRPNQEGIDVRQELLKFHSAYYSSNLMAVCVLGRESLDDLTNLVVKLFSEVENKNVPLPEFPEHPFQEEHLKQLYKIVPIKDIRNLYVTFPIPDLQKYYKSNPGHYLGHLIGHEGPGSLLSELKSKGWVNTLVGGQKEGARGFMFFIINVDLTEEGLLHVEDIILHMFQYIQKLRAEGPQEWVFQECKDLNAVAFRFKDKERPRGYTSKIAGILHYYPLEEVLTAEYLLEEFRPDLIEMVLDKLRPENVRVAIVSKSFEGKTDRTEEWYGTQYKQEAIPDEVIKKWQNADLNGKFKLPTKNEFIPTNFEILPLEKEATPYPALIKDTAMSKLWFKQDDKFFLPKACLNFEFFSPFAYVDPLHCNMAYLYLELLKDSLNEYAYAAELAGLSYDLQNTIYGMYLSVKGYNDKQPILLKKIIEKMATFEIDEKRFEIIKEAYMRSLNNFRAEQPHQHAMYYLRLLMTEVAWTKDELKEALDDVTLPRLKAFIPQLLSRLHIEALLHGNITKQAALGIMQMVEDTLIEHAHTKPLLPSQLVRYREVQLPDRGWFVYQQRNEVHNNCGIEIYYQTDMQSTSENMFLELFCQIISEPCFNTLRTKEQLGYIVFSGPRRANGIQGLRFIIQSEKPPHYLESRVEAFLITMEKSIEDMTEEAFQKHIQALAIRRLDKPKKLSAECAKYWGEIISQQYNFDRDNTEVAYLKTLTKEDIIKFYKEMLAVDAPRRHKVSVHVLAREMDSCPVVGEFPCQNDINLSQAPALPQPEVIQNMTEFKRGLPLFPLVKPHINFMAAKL

[4] = target: T2, recombinant human insulin-degrading …; test: IDE activity assay, insulin substrate (ELISA)
[5] = target: T2, recombinant human insulin-degrading …; test: IDE activity assay, FRET1 substrate; IC50 converted to Ki (Cheng-Prusoff)

Molecule: Ac-FPMPSRPH-NH2 [P12-2D]
Ki [3]: > 500 µM
Ki [4]: > 10 µM

Molecule: Ac-MPSRPHSS [P12-2C]
Ki [3]: > 500 µM
Ki [4]: > 10 µM

Molecule: LNFPMPSRPHSS [P12-2]
Ki [3]: > 100 µM
Ki [4]: > 10 µM

Molecule: LNFPMPSRPHSS-NH2 [P12-2A]
Ki [3]: > 100 µM
Ki [4]: > 10 µM

B2: C7C-2A (peptide)
peptide: ACNAGHLSQCG-NH2
modifications: disulfide 2-10 (inferred)
notes: also called amidated derivative of C7C-2
Ki [3]: > 500 µM
Ki [4]: > 10 µM

B3: C7C-2 (peptide)
peptide: ACNAGHLSQCG
modifications: disulfide 2-10 (inferred)
notes: the synthesized peptide has one C-terminal glycine
Ki [3]: > 500 µM
Ki [4]: > 10 µM

Molecule: LNFPMPSR-NH2 [P12-2B]
Ki [3]: > 500 µM
Ki [4]: > 10 µM

B4: P12-1C (peptide)
peptide: Ac-FRQWWQPS
notes: also called N-terminally truncated variant of P12-1
Ki [4]: > 10 µM
Ki [5]: 139 µM

Molecule: ACSWWSIHLCGGG (disulfide 2-10 (inferred)) [C7C-1B]
Ki [3]: > 100 µM
Ki [4]: > 10 µM

Further lines, results first:

Ki [1]: 1.3 ± 0.2 µM
Ki [2]: 5 ± 0.3 µM
Molecule: CC(C)[C@H](N)C(=O)N[C@@H](Cc1c[nH]cn1)C(=O)N[C@@H](Cc1c[nH]c2ccccc12)C(=O)N[C@@H](CC(=O)O)C(=O)N[C@@H](Cc1ccccc1)C(=O)N[C@@H](CCCNC(=N)N)C(=O)N[C@@H](CCC(N)=O)C(=O)N[C@@H](Cc1c[nH]c2ccccc12)C(=O)N[C@@H](Cc1c[nH]c2ccccc12)C(=O)N[C@@H](CCC(N)=O)C(=O)N1CCC[C@H]1C(=O)N[C@@H](CO)C(N)=O [Peptide P12-1A] (H-VHWDFRQWWQPS-NH2)

Ki [1]: 2.6 ± 0.7 µM
Ki [2]: 4.2 ± 1.3 µM
Molecule: CC[C@H](C)[C@H](NC(=O)[C@@H]1CCCN1C(=O)[C@H](CO)NC(=O)[C@@H](N)Cc1c[nH]c2ccccc12)C(=O)N[C@@H](CO)C(=O)NCC(=O)N[C@@H](CCCCN)C(=O)N[C@@H](Cc1ccccc1)C(=O)N[C@@H](Cc1ccccc1)C(=O)N[C@@H](CCC(N)=O)C(=O)N[C@@H](CCCNC(=N)N)C(=O)N[C@@H](Cc1ccccc1)C(N)=O [Peptide P12-4A] (H-WSPISGKFFQRF-NH2)

Ki [1]: 7 ± 1.7 µM
Ki [2]: 41 ± 6.4 µM
Molecule: CC(C)[C@H](N)C(=O)N[C@@H](Cc1c[nH]cn1)C(=O)N[C@@H](Cc1c[nH]c2ccccc12)C(=O)N[C@@H](CC(=O)O)C(=O)N[C@@H](Cc1ccccc1)C(=O)N[C@@H](CCCNC(=N)N)C(=O)N[C@@H](CCC(N)=O)C(=O)N[C@@H](Cc1c[nH]c2ccccc12)C(N)=O [Peptide P12-1B] (H-VHWDFRQW-NH2)

Ki [2]: 39 ± 20 µM
Molecule: CC(C)C[C@H](NC(=O)[C@H](CO)NC(=O)[C@@H](N)CCC(N)=O)C(=O)N1CCC[C@H]1C(=O)N[C@@H](Cc1c[nH]c2ccccc12)C(=O)N[C@@H](CS)C(=O)N[C@@H](Cc1ccc(O)cc1)C(=O)N1CCC[C@H]1C(N)=O [Peptide P12-3B] (H-QSLPWCYP-NH2)

Ki [1]: 0.8 ± 0.04 µM
Ki [2]: 7.7 ± 0.7 µM
Molecule: CC(C)[C@H](N)C(=O)N[C@@H](Cc1c[nH]cn1)C(=O)N[C@@H](Cc1c[nH]c2ccccc12)C(=O)N[C@@H](CC(=O)O)C(=O)N[C@@H](Cc1ccccc1)C(=O)N[C@@H](CCCNC(=N)N)C(=O)N[C@@H](CCC(N)=O)C(=O)N[C@@H](Cc1c[nH]c2ccccc12)C(=O)N[C@@H](Cc1c[nH]c2ccccc12)C(=O)N[C@@H](CCC(N)=O)C(=O)N1CCC[C@H]1C(=O)N[C@@H](CO)C(=O)O [Peptide P12-1] (H-VHWDFRQWWQPS-OH)

Ki [1]: 1.5 ± 0.3 µM
Ki [2]: 3.9 ± 0.5 µM
Molecule: CC[C@H](C)[C@H](NC(=O)[C@@H]1CCCN1C(=O)[C@H](CO)NC(=O)[C@@H](N)Cc1c[nH]c2ccccc12)C(=O)N[C@@H](CO)C(=O)NCC(=O)N[C@@H](CCCCN)C(=O)N[C@@H](Cc1ccccc1)C(=O)N[C@@H](Cc1ccccc1)C(=O)N[C@@H](CCC(N)=O)C(=O)N[C@@H](CCCNC(=N)N)C(=O)N[C@@H](Cc1ccccc1)C(=O)O [Peptide P12-4] (H-WSPISGKFFQRF-OH)

Ki [1]: 3.7 ± 0.7 µM
Ki [2]: 112 ± 6 µM
Molecule: CC[C@H](C)[C@@H]1NC(=O)[C@H](CO)NC(=O)[C@H](Cc2c[nH]c3ccccc23)NC(=O)[C@H](Cc2c[nH]c3ccccc23)NC(=O)[C@H](CO)NC(=O)[C@@H](NC(=O)[C@H](C)N)CSSC[C@@H](C(=O)NCC(=O)O)NC(=O)[C@H](CC(C)C)NC(=O)[C@H](Cc2c[nH]cn2)NC1=O [Peptide C7C-1] (H-ACSWWSIHLCG-OH; disulfide 2-10)

Ki [3]: > 500 µM
Ki [4]: > 10 µM
Molecule: WSPISGKF-NH2 [P12-4B]

Ki [3]: > 500 µM
Ki [4]: > 10 µM
Molecule: Ac-SGKFFQRF [P12-4C]

Ki [4]: > 10 µM
B1: P12-3C (peptide)
peptide: Ac-WCYPHCVT-OH
modifications: cysteine pairing not given here
notes: also called N-terminally truncated variant of P12-3

Ki [4]: > 10 µM
B5: P12-3B (peptide)
peptide: QSLPWCYP-NH2
notes: also called C-terminally truncated variant of P12-3

Ki [3]: > 500 µM
Ki [4]: > 10 µM
Molecule: Ac-PISGKFFQ-NH2 [P12-4D]
